Test results taken from patent publication US20150104459A1 (published 2015).

B1: TCN-552 (5249_I23) (antibody, V domains shown)
VH: QVQVVQSGAEVKKPGSSVRVSCQASGGTFMNYAIIWVRRAPGQGLEWMGGIIPVFPTPNYAQMFQGRVTISTDESRSTSFLELTNLRYEDTAVYYCARRIYHGGNSGFDFWGQGTLVTVSS
VL: EIVLTQSPATLSLSPGERATLSCRASQSVGNYLAWYQQKPGQAPRLLIYDSSNRAPGIPARFSGSGSGTDFTLTISSLAPEDFAVYYCQQRSKWPPMYSFGHGTKLEIK
B2: TCN-539 (5056_A08) (antibody, V domains shown)
VH: QVQLVESGGGVVQPGRSLRLSCAASEITFITYAMHWVRQAPGKGLEWVALISDDGSNKFYADSVKGRFTISRDNSKNTLYLQMNSLRAEDTAAYYCAREGVYFDSGTYRGYFDYWGQETLVTVSS
VL: EIVLTQSPATLSLSPGERATLSCRASQSVSSYLAWYQQKPGQAPRLLIYDASNRATGIPARFSGSGSGTDFTLTISSLEPEDFAVYYCQQRSHWPPITFGQGTRLEIK
B3: TCN-560 (5084_P10) (antibody, V domains shown)
VH: EVQLVESGGGLVQPGGSLRLSCAASGFIFRNYWMSWVRQAPGKGLEWVANIKQDGREKYYVDSLRGRVNISRDNAENSLYLHMNSLRVEDTAVYFCARARMVVVTGDGFDVWGHGTMVTVSS
VL: DIQMTQSPSSLSASVGDRVTITCRASQNIKRYFNWYQQKPGKAPKLLIYAASNLENGVPSRFSGSGSGTDFTLTISSLQPEDFATYYCQQSFSKSWTFGQGTNVDIK
B4: TCN-554 (5277_M05) (antibody, V domains shown)
VH: QVQLVQSGADLKKPGASVKVSCKASGYTFTDYYIHWVRQAPGQGLEWMGWINPESGDTKYAQKFQGRVTMTRDTSITTAYMELGRLRSDDTAVYYCARDVSTTWSWFAPWGQGTLVTVSS
VL: DIVMTQSPDSLAVSLGERATINCRSSQSIFHNSNNENYLAWYQQKPGQPPKLLIYWASTRESGVPDRFSGSGSGTDFTLTISSLQAEDVAVYFCQQYYNAPLTFGGGTKVEIK
B5: TCN-554 (5277_M05) (antibody, V domains shown)
VH: QVQLVQSGADLKKPGASVKVSCKASGYTFTDYYIHWVRQAPGQGLEWMGWINPESGDTKYAQKFQGRVTMTRDTSITTAYMELGRLRSDDTAVYYCARDVSTTWSWFAPWGQGTLVTVSS
VL: DIVMTQSPDSLAVSLGERATINCRSSQSIFHNSNNENYLAWYQQKPGQPPKLLIYWASTRESGVPDRFSGSGSGTDFTLTISSLQAEDVAVYFCQQYYNAPLTFGGGTKVEIK
B6: TCN-553 (5261_C18) (antibody, V domains shown)
VH: QVQVVQSGTEVKKPGSSVKVSCQTSGGRFMSYAITWVRQAPGQGLEWMGGIVPVFGTANYAQKFQGRVTITTDDSTRTAYMELSSLRSEDTAVYYCGFRYGSGYGFDSWGQGTLVTVSS
VL: EIVLTQSPGTLSLSPGERATLSCRASQSVSSSYLAWYQKKPGQAPRLLIYGASTRATGIPDRFTGSGSGTDFTLSISRLEPEDFAVYYCQHFGTSVFTFGGGTKVEIK
B7: TCN-550 (5096_F06) (antibody, V domains shown)
VH: QVQLQESGPGLVKPSETLSLTCTVSGASINSHYWSWIRQPPGKGLEWIGYVYYSGSTTYNPSLKSRVTLSVDTSKNQFSLNLSSVTAADTAFYYCARHPYDVLTGSGDWFDPWGQGTLVTVSS
VL: SYVLTQAPSVSVAPGQTARITCGGNAIGSKKVHWYQHKAGQAPVLVVYDDTDRPSGIPERFSGSNSWSTATLTINRVEAGDEADYYCQVWDFTIDHVVFGGGTKLTVL
B8: TCN-534 (5249_B02) (antibody, V domains shown)
VH: QVQLVQSGAEVKKPGSSVKVSCRESGGTFNGYTITWVRQAPGQGLEWMGGIIPMMGTVNYAQKLQGRVTITTDYFTKTAYMDLNNLRSEDTAMYYCVKIRYTGQQLLWGQGTLVTVSS
VL: DIQMTQSPSTLSASIGDRVTITCRASQSIASWLAWYQQKPGKAPKLLIYEAVNLESGVPSRFSGSGSGTDFTLTISSLQPDDFATYFCQHYGTISQTFGGGTKVEIK
B9: TCN-537 (3194_D21) (antibody, V domains shown)
VH: QVQLQQWGSGLLKPSETLSLTCAVYGGSFRDDYWTWIRQPPGKGLEWIGEINHSGRTNYNPSLKSRVTISVDTSLKQFSLKVISVTAADTAVYYCARGTSHVSRYFDWLPPTNWFDPWGQGTQVTVSS
VL: DIVLTQSPGTLSLSPGERATLSCRASQSVSSSYLAWYQQKPGQAPRLVMYGAATRATGIPDRFSGSGSGPDFTLTISRLEPEDFAMYYCQQYGNSPITFGQGTRLEIK
B10: TCN-544 (5082_A19) (antibody, V domains shown)
VH: QVQLQESGPGLVKPSETLSLTCTVSRGSIGHYFWSWIRQPPGKGLEWIGYISYSGSTKYNPSLRSRVTISVDTSKNQFSLNLNSVTATDTALYYCAREDYDILTGAGPGMEVWGQGTTVTVSS
VL: QSMLTQPPSASGTPGQRVTISCSGSSSNIGSNTVNWFKHLPGTAPKLLIYRNDLRPSGVPDRFSGSKSGTSASLAISGLQSEDEADYYCATWDDSLNGFYVFGTGTKVTVL
B11: TCN-536 (5095_N01) (antibody, V domains shown)
VH: QVQLQQWGAGLLKPSETLSLTCAVYGGSFSVSGYYWSWIRQPPGRGLEWIGEISHGGSTNYNPSLKSRVTISVDTTKNQFSLRLSSVTAADTAVYYCARGTDPDTEVYCRVGNCAAFDYWGQGSLVTVSS
VL: EIILAQSPGTLSLSPGERATLSCRASQFVSTRSLAWYQQRPGQAPRLLIYGASSRATGIPDRFSGSGSGTDFTLTISRLEPEDFAVYYCQHYGYSPRYAFGQGSKVEIK
B12: TCN-538 (3206_O17) (antibody, V domains shown)
VH: QITLKESGPTLVKPTQTLTLTCVFSGFSLSITGVRVGWIRQPPGKALEWLALISWDDEKHYSPSLQSRLTITKDTSKNQVVLTMTNLDPVDTATYYCARSTDRGHVLRYFGWMLPGDAFDVWGQGTMVTVSS
VL: DIVMTQSPDFLPVSLGERATINCKSSQRVLYSSNNKNYLAWYQLKPGQPPKLIIYWASTRESGVPDRFSGSGSGTEFTLTISSLQAEDVAVYYCQQYYSRPYTFGQGTKLEIK
B13: TCN-535 (5246_P19) (antibody, V domains shown)
VH: QVQLVQSGSEVKKPGTSVKVSCTASGSVFTNYGISWVRQAPGQGLEWMGGIIPLFGAAKYAQKFQGRVTITADESTKTVYMELSRLTSKDTAIYFCAKAPRVYEYYFDQWGQGTPVTVSS
VL: EIVLTQSPGTLSLSPGERATLSCRASQSVSSSQLAWYQQKPGQAPRLIIYGASTRATGIPDRFSGSGSGTDFTLTIGRLEPEDFAVFFCQQYSTSPPTFGQGTKVDFK
B14: TCN-555 (5246_L16) (antibody, V domains shown)
VH: QVQLVQSGAEVKRPGSSVKVSCTASGGIFRKNAISWVRQAPGQGLEWMGGIIAVFNTANYAQKFQNRVKITADESGNTAYMELSSLTSDDTAVYYCASHPKYFYGSGSYPDFWGQGTLVTVSS
VL: QSALTQPRSVSGSPGQSITISCTGGSSDIGASNSVSWYQQHPGKAPKLVIFDVTERPSGVPHRFSGSKSGNTASLTVSGLQPDDEADYFCCAYGGKYLVVFGGGTKVTVL
B15: TCN-563 (5237_B21) (antibody, V domains shown)
VH: QVQLAQSGAEVKRPGSSVKVSCTASGGIFRKNAISWVRQAPGQGLEWMGGIIAVFNTANYAQKFQGRVKITADESGNTAYMELSSLRSDDTAVYYCASHPKYFYGSGSYPDFWGQGTLVTVSS
VL: QSALTQPRSVSGSPGQSVTISCTGSSSDVGASNSVSWYQQHPGKAPKLVIYDVTERPSGVPHRFSGSKSGNTASLTVSGLQPEDEADYFCCAYGGKYLVVFGGGTKVTVL

Tests used:
Assay in all cases: cell-based or functional assay
[1] = target: Hemagglutinin of influenza A/Solomon Islands/3/06 (H1N1) on whole virions (Influenza A virus A/Solomon …)
[2] = target: hemagglutinin (HA) of live influenza A/Wisconsin/67/05 (H3N2) virus (influenza A virus A/Wisconsin/67/2005 …)
[3] = target: hemagglutinin (HA) of live influenza A/Solomon Islands/3/06 (H1N1) virus (influenza A virus A/Solomon …)

Row | Binder | % Neutralization [1] [%] | % Neutralization [2] [%] | % Neutralization [3] [%]
1 | B1 | 57 | – | –
2 | B2 | – | 99 | –
3 | B3 | 94 | – | –
4 | B4 | – | 100 | –
5 | B5 | 42 | – | –
6 | B6 | 87 | – | –
7 | B7 | – | 100 | –
8 | B8 | – | 0 | 65.7
9 | B9 | – | 0 | 0
10 | B10 | – | 97 | –
11 | B11 | – | 99.9 | 81.6
12 | B12 | – | 0 | 21
13 | B13 | – | 0 | 88.6
14 | B14 | 48 | – | –
15 | B15 | 78 | – | –
